Measured values from patent EP4538285A1.

Target: wild-type human PD-1, expressed on cells (PD1-CD28) (human) (UniProt P10747)
Test: cell-based or functional assay

wild-type human PD-1, expressed on cells (PD1-CD28) (human), sequence (P10747 other isoform, or with tags, fused parts or gaps limits assumed): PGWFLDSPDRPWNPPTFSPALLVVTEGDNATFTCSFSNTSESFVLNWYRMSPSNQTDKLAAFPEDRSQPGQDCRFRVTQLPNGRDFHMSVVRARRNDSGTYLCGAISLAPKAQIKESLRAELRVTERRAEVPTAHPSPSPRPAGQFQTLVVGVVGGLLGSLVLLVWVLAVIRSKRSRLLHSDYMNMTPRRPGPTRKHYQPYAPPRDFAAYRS

- IL-2 concentration (pg/ml) at 0.8 nM: 432 pg/mL
- IL-2 concentration (pg/ml) at 1.6 nM: 440 pg/mL
- IL-2 concentration (pg/ml) at 3.2 nM: 440 pg/mL
- IL-2 concentration (pg/ml) at 6.4 nM: 56.1 pg/mL
- IL-2 concentration (pg/ml) at 12.8 nM: 36.9 pg/mL
- IL-2 concentration (pg/ml) at 25.6 nM: 47.7 pg/mL
- IL-2 concentration (pg/ml) at 51.2 nM: 80.5 pg/mL
- IL-2 concentration (pg/ml) at 102.4 nM: 126 pg/mL
Substance: Tilelizumab (antibody)
